For assay [1], the target named is T1, recombinant human Endoglin (human, UniProt P17813 26-586).
T1 construct: It states only that the extracellular domain is residues 26-561; also called rhENG; recombinant human ENG
T1 sequence: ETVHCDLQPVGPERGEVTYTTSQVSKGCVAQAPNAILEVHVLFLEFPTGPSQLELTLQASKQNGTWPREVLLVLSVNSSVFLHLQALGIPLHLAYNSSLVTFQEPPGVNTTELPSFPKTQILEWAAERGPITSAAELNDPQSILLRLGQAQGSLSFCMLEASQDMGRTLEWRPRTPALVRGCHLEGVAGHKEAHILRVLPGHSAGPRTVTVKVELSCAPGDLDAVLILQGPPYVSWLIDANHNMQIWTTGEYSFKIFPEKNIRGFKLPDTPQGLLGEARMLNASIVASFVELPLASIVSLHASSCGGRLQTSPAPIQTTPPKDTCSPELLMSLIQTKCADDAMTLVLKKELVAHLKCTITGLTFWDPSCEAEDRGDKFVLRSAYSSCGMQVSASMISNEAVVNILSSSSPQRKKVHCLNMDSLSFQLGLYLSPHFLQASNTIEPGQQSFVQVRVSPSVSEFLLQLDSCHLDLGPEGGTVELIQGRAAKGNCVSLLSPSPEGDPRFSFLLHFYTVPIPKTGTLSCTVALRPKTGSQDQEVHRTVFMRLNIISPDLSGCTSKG
As to the kind of experiment: QCM (Attana A100) on rhENG; first of two constants.

The target in assay [2] is T1, recombinant human Endoglin. Put plainly: QCM (Attana A100) on rhENG; second of two constants (avidity contribution noted).
The target in assay [3] is T2, human Endoglin on HT1080 cells (human, UniProt P17813 26-658).
T2 construct: also called ENG-positive HT1080
T2 sequence: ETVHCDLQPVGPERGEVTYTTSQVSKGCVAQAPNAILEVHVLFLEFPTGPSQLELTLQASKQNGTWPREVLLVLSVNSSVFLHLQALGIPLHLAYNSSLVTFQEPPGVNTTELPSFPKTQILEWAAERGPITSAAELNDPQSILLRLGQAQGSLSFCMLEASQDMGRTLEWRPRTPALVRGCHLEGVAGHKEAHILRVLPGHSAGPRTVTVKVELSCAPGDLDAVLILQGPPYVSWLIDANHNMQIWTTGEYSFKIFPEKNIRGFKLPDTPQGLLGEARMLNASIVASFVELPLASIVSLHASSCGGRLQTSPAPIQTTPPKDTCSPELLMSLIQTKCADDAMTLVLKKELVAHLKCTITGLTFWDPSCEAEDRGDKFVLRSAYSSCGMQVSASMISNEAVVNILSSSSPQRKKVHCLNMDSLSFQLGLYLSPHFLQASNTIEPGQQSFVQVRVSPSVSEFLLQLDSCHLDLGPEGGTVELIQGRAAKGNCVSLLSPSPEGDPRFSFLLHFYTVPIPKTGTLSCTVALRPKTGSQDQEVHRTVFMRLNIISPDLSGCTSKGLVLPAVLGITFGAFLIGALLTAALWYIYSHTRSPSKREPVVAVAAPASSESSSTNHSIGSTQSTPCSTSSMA
As to the kind of experiment: flow cytometry on ENG-positive HT1080 cells.
Procedure: (§1) Cell binding was analyzed by flow cytometry, using ENG-positive HT1080 and ENG expressing mouse eEnd2.

Assay [4] concerns the target T3, mouse Endoglin on eEnd2 cells (mouse, UniProt Q63961 27-653).
T3 construct: also called ENG expressing mouse eEnd2
T3 sequence: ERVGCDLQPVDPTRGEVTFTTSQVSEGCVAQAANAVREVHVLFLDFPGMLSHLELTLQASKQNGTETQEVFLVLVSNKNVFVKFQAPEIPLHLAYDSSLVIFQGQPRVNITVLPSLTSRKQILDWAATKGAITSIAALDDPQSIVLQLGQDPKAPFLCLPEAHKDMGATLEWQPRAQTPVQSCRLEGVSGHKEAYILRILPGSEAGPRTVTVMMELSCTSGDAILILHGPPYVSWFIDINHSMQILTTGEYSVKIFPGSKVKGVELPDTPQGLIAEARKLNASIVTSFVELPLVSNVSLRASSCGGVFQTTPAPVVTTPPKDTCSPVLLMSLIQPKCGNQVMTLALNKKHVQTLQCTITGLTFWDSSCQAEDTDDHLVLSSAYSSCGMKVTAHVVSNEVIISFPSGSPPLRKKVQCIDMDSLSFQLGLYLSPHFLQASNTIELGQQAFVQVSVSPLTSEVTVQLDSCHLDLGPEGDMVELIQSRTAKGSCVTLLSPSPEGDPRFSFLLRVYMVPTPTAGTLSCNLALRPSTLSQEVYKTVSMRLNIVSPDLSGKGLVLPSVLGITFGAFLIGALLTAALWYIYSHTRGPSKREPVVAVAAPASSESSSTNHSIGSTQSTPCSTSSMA
Put plainly: flow cytometry on ENG-expressing mouse eEnd2 cells.
Procedure: as §1

The target in assay [5] is T4, BSA (UniProt P02769 25-607).
T4 construct: also called coated BSA; negative control (BSA)
T4 sequence (P02769 25-607 limits assumed): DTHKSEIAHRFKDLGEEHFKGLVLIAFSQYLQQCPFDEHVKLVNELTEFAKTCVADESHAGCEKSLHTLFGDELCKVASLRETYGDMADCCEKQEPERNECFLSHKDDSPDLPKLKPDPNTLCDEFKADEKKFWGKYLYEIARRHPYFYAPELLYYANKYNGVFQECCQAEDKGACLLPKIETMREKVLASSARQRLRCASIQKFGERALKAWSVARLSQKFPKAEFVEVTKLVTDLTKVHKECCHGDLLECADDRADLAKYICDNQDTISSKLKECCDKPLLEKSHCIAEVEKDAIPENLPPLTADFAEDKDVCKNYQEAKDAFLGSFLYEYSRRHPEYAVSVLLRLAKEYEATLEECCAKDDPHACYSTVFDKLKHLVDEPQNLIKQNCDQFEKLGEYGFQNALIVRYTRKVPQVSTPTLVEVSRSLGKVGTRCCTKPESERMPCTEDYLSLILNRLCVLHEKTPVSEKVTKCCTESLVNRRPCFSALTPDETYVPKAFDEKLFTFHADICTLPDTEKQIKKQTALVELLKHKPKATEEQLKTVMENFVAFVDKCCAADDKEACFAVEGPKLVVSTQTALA
As to the kind of experiment: ELISA, coated BSA as negative control. Background: An ELISA detects its analyte on a solid surface through an enzyme-linked reagent.

For assay [6], the target named is T5, recombinant mouse ENG (aa 27-581) (mouse, UniProt Q63961 27-581).
T5 construct: also called rmENG; recombinant mouse Endoglin
T5 sequence: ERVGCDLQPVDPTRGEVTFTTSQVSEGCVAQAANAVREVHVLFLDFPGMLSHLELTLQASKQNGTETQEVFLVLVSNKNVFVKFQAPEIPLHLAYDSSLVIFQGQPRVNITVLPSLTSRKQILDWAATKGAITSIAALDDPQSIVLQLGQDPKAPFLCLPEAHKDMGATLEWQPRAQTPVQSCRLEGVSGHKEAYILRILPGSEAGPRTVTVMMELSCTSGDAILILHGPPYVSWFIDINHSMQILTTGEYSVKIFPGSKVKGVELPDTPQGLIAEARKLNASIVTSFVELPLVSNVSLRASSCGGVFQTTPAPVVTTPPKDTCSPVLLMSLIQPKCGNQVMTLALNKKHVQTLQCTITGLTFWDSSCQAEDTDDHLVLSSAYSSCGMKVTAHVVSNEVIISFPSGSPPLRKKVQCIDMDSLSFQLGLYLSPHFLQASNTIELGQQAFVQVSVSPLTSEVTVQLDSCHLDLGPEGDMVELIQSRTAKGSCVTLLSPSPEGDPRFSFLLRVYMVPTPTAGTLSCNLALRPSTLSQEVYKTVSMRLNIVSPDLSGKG
Put plainly: ELISA on recombinant mouse ENG, detection with HRP-conjugated anti-human IgG.

What is called EC50 is the midpoint of the concentration-response curve.

B1: anti-human Endoglin A5-IgG1 (antibody, V domains shown)
VH: EVQLLESGGGLVQPGGSLRLSCAASGFTFSSYAMSWVRQAPGKGLEWVSAIYGSDGDTTYADSVKGRFTISRDNSKNTLYLQMNSLRAEDTAVYYCARVFYTAGFDYWGQGTLVTVSS
VL: DIELTQSPSSLSASVGDRVTITCRASQSISSSLNWYQQKPGKAPKLLIYAASSLQSGVPSRFSGSGSGTDFTLTISSLQPEDFATYYCQQAPAKPPTFGQGTKLEIKR
notes: Full-length human IgG1 (gamma1*/kappa, deficient for ADCC and CDC), made from the scFv A5 and produced in CHO cells; also called anti-huENG A5; A5 anti-huENG IgG1
Turning to B1, the Kd in assay [1] came out at 260 nM; in assay [2], 2.5 nM. The same molecule had a half-maximal effective concentration (EC50) in assay [3] of 0.4 nM.

B2: anti-murine Endoglin mE12-IgG1 (antibody, V domains shown)
VH: EVQLVESGGGVVQPGRSLRLSCAASGFTFSSYGMHWVRQAPGKGLVWVSRINSDGSSTSYADSVKGRFTISRDNSKNTLYLQMNSLRAEDTAVYYCARATGTWVMSWGQGTLVTVSS
VL: SSELIQDPAVSVALGQTVRITCQGDSLRSYYASWYQQKPGQAPVLVIYGKNNRPSGIPDRFSGSSSGNTASLTITGAQAEDEADYYCNSRDSSGTVFGGGTKLTVLG
notes: Full-length human IgG1 (gamma1*/lambda, deficient for ADCC and CDC), made from the scFv mE12 and produced in CHO cells; also called anti-muENG mE12; OCMTX004p
With B2, the 50% effective concentration (EC50) in assay [4] was 89 nM; in assay [6] it was 60 nM. Besides, the binding result in assay [5] is on record as “no binding”.

The values above are taken from patent publication US20170007714A1 (ONCOMATRYX BIOPHARMA S L, published 2017).
